PMC8406323, “Cellular 5′-3′ mRNA Exoribonuclease XRN1 Inhibits Interferon Beta Activation and Facilitates Influenza A Virus Replication” (mBio, 2021)

Molecular target: T1, GST-XRN1-C-terminal region (aa 1174–1706) fusion protein (human, UniProt Q8IZH2 1174-1706)
T1 construct: XRN1, human, C-terminal region aa 1174-1706 (vector pGEX-6P); Held on glutathione beads in the pull-down; also called GST-tagged-XRN1 (aa 1174–1706); source: E. coli BL21(DE3), purified (glutathione Sepharose 4B)
T1 sequence: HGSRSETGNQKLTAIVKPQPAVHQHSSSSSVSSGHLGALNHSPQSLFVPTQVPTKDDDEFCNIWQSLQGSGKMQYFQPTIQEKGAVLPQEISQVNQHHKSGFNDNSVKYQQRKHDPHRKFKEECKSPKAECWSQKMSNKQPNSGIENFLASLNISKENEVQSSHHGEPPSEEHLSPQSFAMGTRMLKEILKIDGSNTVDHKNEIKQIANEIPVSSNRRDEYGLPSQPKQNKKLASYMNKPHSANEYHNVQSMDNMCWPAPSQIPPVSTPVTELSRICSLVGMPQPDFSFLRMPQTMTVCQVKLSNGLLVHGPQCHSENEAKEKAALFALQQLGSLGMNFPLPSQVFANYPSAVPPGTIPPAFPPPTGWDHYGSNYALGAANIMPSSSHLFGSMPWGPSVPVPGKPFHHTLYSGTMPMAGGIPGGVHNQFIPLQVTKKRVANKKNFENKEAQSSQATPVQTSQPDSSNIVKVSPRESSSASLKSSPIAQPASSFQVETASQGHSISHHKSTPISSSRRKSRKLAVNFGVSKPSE
Assay: pull-down
Details: both partners purified

B1: His-NS1 from PR8 (natural protein)
chain: MDPNTVSSFQVDCFLWHVRKRVADQELGDAPFLDRLRRDQKSLRGRGSTLGLDIETATRAGKQIVERILKEESDEALKMTMASVPASRYLTDMTLEEMSRDWSMLIPKQKVAGPLCIRMDQAIMDKNIILKANFSVIFDRLETLILLRAFTEEGAIVGEISPLPSLPGHTAEDVKNAVGVLIGGLEWNDNTVRVSETLQRFAWRSSNENGRPPLTPKQKREMAGTIRSEV
notes: also called His-tagged NS1; recombinant NS1
**Q.** Does B1 bind?
**A.** binds
